Source: patent publication US5985836A, “Alpha-1 proteinase inhibitor binding peptides” (Bayer Corporation, priority 1998, dated 1999)
Ends that are not written are not given here.

Assays:
A1PI [1] = target: T1, A1PI (Homo sapiens, UniProt P01009); experiment: A1PI binding on peptide-resin column, injection of 1 mg A1PI in equilibration buffer; conditions: 1 mg A1PI in equilibration buffer
T1 construct: Human plasma is currently the only approved source of therapeutic AlPI
In short: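 Percent of total eluted A1PI per fraction (flowthrough, NaCl steps, 2% acetic acid) determined by A280 integration or immunonephelometry. Columns of peptide-derivatized A-Totda-Toyopearl resin (0.1 mmole/g) received 1 mg A1PI at 4 °C or 20 °C, flow 865 or 523 μl/min.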

A1PI [2] = target: T1, A1PI; experiment: A1PI purification from 5 mg hSA + 1 mg A1PI on peptide column, A1PI mass balance; type: binding; conditions: A1PI, 5 mg hSA + 1 mg A1PI; for Mass Protein per Eluate Fraction, 1M NaCl / Mass Protein per Eluate Fraction, 2% Ac. Acid / Mass Protein per Eluate Fraction, Flow: * Below detection limit; for Percent Eluted by Fraction, 1M NaCl / Percent Eluted by Fraction, 2% Ac. Acid / Percent Eluted by Fraction, 3M NaCl / Percent Eluted by Fraction, Flow: relative to total eluted
In short: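 Mass balance by immunonephelometry of fractions from step elutions (1M NaCl, 3M NaCl, 2% acetic acid, neutralised with Tris) at 865 μl/min. Sample was a mixture of 1 mg A1PI and 5 mg hSA held 10 min on peptide-derivatised Toyopearl columns (0.1 mmole/g) at 4 °C or 20 °C.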

A1PI [3] = target: T1, A1PI; experiment: Purification of A1PI from Effluent II+III on peptide column, A1PI mass balance; type: binding; conditions: A1PI, 1 ml Eff. II+III, 4° C.
In short: (§1)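 Feed: 1 ml Eff. II+III (20% EtOH, 20-25 mg/ml hSA, ~1 mg/ml A1PI). 10 min residence, then 865 μl/min; steps 1M NaCl / 3M NaCl / 2% acetic acid; 4° C. Mass balance per fraction.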

[4] = target: T2, apolipoprotein alpha-1 (Apo A-1) (Homo sapiens, UniProt P02647); experiment: Purification from Effluent II+III, Apo A-1 mass balance; type: binding; conditions: 1 ml Eff. II+III, 4° C.
T2 construct: Eff; II+III is a process intermediate in the Cohn plasma fractionation process; tissue Bayer Corporation (Clayton, N.C.); host or cells: plasma fraction: Cohn Effluent II+III
T2 sequence (P02647 19-267): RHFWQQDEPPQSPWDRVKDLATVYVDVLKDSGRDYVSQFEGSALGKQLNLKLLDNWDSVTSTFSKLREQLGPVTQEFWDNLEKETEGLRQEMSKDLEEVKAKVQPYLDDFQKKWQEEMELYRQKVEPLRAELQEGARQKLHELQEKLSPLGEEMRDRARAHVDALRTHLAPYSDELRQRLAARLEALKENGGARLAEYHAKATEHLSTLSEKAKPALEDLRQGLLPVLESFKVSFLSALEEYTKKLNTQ
In short: as §1

Immunoglobulin A (IgA) = experiment: Purification from Effluent II+III, IgA mass balance; type: binding, human; conditions: 1 ml Eff. II+III, 4° C.
In short: as §1

Immunoglobulin G (IgG) = experiment: Purification from Effluent II+III, IgG mass balance; type: binding, human; conditions: 1 ml Eff. II+III, 4° C.
In short: as §1

A1PI [5] = target: T1, A1PI; experiment: Capture and elution of active A1PI with 2M urea buffer (elastase inhibition activity assay and immunonephelometry); type: binding; conditions: 4° C.
[6] = * as in Tables 4, 5 (below detection limit)

T1 sequence (P01009 25-418): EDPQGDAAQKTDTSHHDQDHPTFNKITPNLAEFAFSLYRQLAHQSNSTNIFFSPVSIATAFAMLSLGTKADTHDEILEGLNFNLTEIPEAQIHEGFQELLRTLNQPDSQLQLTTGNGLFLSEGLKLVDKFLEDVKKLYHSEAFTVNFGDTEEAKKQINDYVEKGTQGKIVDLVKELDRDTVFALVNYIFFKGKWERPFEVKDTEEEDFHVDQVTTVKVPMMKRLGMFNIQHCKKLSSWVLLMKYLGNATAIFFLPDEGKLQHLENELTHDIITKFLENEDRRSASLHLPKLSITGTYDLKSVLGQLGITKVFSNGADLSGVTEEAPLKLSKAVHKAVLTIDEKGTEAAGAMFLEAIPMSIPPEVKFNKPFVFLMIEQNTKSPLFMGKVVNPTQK

- Percent A1PI Eluted by Fraction Based on Absorbance at 280 nm, 1M NaCl (A1PI [1]; 4° C.): 55%
- Percent A1PI Eluted by Fraction Based on Absorbance at 280 nm, 2% Acetic Acid (A1PI [1]; 4° C.): 45%
- Percent A1PI Eluted by Fraction Based on Absorbance at 280 nm, Flowthrough (A1PI [1]; 4° C.): 0%
- Percent A1PI Eluted by Fraction, 1M NaCl (A1PI [1]; 20° C.): 72%
- Percent A1PI Eluted by Fraction, 2% Acetic Acid (A1PI [1]; 20° C.): 28%
- Percent A1PI Eluted by Fraction, Flowthrough (A1PI [1]; 20° C.): 0%
- Mass Protein per Eluate Fraction, 1M NaCl (A1PI [2]; 4° C.): 0.19 mg
- Mass Protein per Eluate Fraction, 2% Ac. Acid (A1PI [2]; 4° C.): 0.45 mg
- Mass Protein per Eluate Fraction, Flow (A1PI [2]; 4° C.): 0.26 mg
- Percent Eluted by Fraction, 1M NaCl (A1PI [2]; 4° C.): 21%
- Percent Eluted by Fraction, 2% Ac. Acid (A1PI [2]; 4° C.): 50%
- Percent Eluted by Fraction, 3M NaCl (A1PI [2]; 4° C.): 0%
- Percent Eluted by Fraction, Flow (A1PI [2]; 4° C.): 29%
- Mass Protein per Eluate Fraction, 1M NaCl (A1PI [2]; 20° C.): 0.14 mg
- Mass Protein per Eluate Fraction, 2% Ac. Acid (A1PI [2]; 20° C.): 0.54 mg
- Mass Protein per Eluate Fraction, Flow (A1PI [2]; 20° C.): 0.09 mg
- Percent Eluted by Fraction, 1M NaCl (A1PI [2]; 20° C.): 19%
- Percent Eluted by Fraction, 2% Ac. Acid (A1PI [2]; 20° C.): 70%
- Percent Eluted by Fraction, 3M NaCl (A1PI [2]; 20° C.): 0%
- Percent Eluted by Fraction, Flow (A1PI [2]; 20° C.): 11%
- Percent Eluted by Fraction, 1M NaCl (A1PI [3]): 4%
- Percent Eluted by Fraction, 2% Acetic Acid (A1PI [3]): 80%
- Percent Eluted by Fraction, 3M NaCl (A1PI [3]): 0%
- Percent Eluted by Fraction, Flow (A1PI [3]): 17%
- Mass Protein per Eluate Fraction, 1M NaCl (A1PI [3]; [6]): 0.04 mg
- Mass Protein per Eluate Fraction, 2% Acetic Acid (A1PI [3]; [6]): 0.87 mg
- Mass Protein per Eluate Fraction, Flow (A1PI [3]; [6]): 0.18 mg
- Percent Eluted by Fraction, 1M NaCl [4]: 0%
- Percent Eluted by Fraction, 2% Acetic Acid [4]: 100%
- Percent Eluted by Fraction, 3M NaCl [4]: 0%
- Percent Eluted by Fraction, Flow [4]: 0%
- Mass Protein per Eluate Fraction, 2% Acetic Acid [4, 6]: 0.29 mg
- Mass A1PI in Urea Eluate (mg), Activity (A1PI [5]; 1 mg A1PI, eluted with 2M urea, pH 6, elastase inhibition activity assay): 0.62 mg
- Mass A1PI in Urea Eluate (mg), Nephelometry (A1PI [5]; 1 mg A1PI, eluted with 2M urea, pH 6, immunonephelometry): 0.71 mg
- Specific Activity (A1PI [5]; mass of A1PI by activity assay relative to immunonephelometry, urea eluate): 0.87 mg/mg
Substance: RAFWYI
- Percent Eluted by Fraction, 1M NaCl (Immunoglobulin A (IgA)): 36%
- Percent Eluted by Fraction, 2% Acetic Acid (Immunoglobulin A (IgA)): 29%
- Percent Eluted by Fraction, 3M NaCl (Immunoglobulin A (IgA)): 0%
- Percent Eluted by Fraction, Flow (Immunoglobulin A (IgA)): 35%
- Mass Protein per Eluate Fraction, 1M NaCl (Immunoglobulin A (IgA); [6]): 0.12 mg
- Mass Protein per Eluate Fraction, 2% Acetic Acid (Immunoglobulin A (IgA); [6]): 0.10 mg
- Mass Protein per Eluate Fraction, Flow (Immunoglobulin A (IgA); [6]): 0.12 mg
- Percent Eluted by Fraction, 1M NaCl (Immunoglobulin G (IgG)): 9%
- Percent Eluted by Fraction, 2% Acetic Acid (Immunoglobulin G (IgG)): 0%
- Percent Eluted by Fraction, 3M NaCl (Immunoglobulin G (IgG)): 0%
- Percent Eluted by Fraction, Flow (Immunoglobulin G (IgG)): 91%
- Mass Protein per Eluate Fraction, 1M NaCl (Immunoglobulin G (IgG); [6]): 0.02 mg
- Mass Protein per Eluate Fraction, Flow (Immunoglobulin G (IgG); [6]): 0.24 mg
